The source of these data is IntAct's records for PubMed 22139370.

B1: Cryptochrome-2 (Arabidopsis thaliana (Mouse-ear cress)), Q96524 (parent)
chain: MKMDKKTIVWFRRDLRIEDNPALAAAAHEGSVFPVFIWCPEEEGQFYPGRASRWWMKQSLAHLSQSLKALGSDLTLIKTHNTISAILDCIRVTGATKVVFNHLYDPVSLVRDHTVKEKLVERGISVQSYNGDLLYEPWEIYCEKGKPFTSFNSYWKKCLDMSIESVMLPPPWRLMPITAAAEAIWACSIEELGLENEAEKPSNALLTRAWSPGWSNADKLLNEFIEKQLIDYAKNSKKVVGNSTSLLSPYLHFGEISVRHVFQCARMKQIIWARDKNSEGEESADLFLRGIGLREYSRYICFNFPFTHEQSLLSHLRFFPWDADVDKFKAWRQGRTGYPLVDAGMRELWATGWMHNRIRVIVSSFAVKFLLLPWKWGMKYFWDTLLDADLECDILGWQYISGSIPDGHELDRLDNPALQGAKYDPEGEYIRQWLPELARLPTEWIHHPWDAPLTVLKASGVELGTNYAKPIVDIDTARELLAKAISRTREAQIMIGAAPDEIVADSFEALGANTIKEPGLCPSVSSNDQQVPSAVRYNGSKRVKPEEEEERDMKKSRGFDERELFSTAESSSSSSVFFVSQSCSLASEGKNLEGIQDSSDQITTSLGKNGCK
partner: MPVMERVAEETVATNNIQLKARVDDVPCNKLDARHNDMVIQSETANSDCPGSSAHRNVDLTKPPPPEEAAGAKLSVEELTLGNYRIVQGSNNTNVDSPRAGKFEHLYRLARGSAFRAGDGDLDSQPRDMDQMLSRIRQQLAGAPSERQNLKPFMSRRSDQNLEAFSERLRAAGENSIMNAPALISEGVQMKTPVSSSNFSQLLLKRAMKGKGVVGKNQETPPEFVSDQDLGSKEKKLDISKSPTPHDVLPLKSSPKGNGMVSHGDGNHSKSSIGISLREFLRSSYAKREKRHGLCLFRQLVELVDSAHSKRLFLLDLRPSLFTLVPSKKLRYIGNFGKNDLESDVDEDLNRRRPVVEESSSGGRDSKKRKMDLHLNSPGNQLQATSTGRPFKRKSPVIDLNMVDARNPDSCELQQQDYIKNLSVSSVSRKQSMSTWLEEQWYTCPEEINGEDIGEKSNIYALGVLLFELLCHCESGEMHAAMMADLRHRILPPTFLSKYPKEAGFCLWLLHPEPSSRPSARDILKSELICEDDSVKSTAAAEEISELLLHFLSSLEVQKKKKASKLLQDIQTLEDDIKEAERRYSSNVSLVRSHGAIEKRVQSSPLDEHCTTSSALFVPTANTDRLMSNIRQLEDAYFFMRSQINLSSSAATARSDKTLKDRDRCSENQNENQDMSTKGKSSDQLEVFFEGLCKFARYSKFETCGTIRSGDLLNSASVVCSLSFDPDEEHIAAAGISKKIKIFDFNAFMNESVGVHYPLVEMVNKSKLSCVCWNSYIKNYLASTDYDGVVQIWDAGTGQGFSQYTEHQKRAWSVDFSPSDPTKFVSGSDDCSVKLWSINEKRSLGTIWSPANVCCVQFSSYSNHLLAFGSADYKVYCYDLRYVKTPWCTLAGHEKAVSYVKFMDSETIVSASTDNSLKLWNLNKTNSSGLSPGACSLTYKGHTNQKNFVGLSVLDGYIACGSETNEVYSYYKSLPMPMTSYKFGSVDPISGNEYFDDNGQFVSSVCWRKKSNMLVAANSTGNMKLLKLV
B2: Cryptochrome-2 (Arabidopsis thaliana (Mouse-ear cress)), Q96524 (parent)
chain: B1 chain
partner: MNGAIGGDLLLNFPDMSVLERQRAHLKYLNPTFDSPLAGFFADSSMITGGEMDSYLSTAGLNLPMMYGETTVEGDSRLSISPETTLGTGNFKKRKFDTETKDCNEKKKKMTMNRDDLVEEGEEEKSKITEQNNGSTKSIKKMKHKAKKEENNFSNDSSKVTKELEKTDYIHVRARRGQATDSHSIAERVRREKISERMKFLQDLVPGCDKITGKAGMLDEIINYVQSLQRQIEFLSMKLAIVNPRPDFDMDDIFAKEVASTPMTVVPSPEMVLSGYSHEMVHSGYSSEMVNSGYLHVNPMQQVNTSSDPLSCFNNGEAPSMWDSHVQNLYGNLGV

The variants in the first experiment derive from B1. The conditions noted are these: with spa1_arath SPA1, Q9SYX2.
As for W374A, the “effect of a mutation on the interaction” value is “increasing interaction strength”.

In the next experiment the parent is B2. The conditions noted are these: with bh063_arath BHLH63, Q8GY61.
Take D387A: the “effect of a mutation on the interaction” value is recorded as “disrupting interaction strength”.
Still for that read-out and setting: as for W374A, the entry is “increasing interaction strength”.
